Experimental data taken from paper doi:10.1101/2022.07.26.501514.

Target: T1, Atg18 wildtype (Autophagy-related protein 18, Saccharomyces cerevisiae) (Saccharomyces cerevisiae), P43601
T1 chain: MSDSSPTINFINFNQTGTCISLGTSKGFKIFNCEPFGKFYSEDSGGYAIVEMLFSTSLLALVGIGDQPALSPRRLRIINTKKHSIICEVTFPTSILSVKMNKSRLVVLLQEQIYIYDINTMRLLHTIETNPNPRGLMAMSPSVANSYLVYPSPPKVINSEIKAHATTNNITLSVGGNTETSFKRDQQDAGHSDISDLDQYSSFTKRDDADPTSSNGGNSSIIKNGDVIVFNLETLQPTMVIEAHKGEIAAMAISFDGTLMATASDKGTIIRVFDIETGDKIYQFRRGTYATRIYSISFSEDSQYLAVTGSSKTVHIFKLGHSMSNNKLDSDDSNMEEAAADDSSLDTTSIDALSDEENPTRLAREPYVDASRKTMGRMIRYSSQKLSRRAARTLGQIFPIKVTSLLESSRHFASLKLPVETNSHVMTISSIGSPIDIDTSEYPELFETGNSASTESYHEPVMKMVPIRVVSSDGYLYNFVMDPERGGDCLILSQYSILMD
Test: single-particle cryo-EM, 2D classification
Conditions: remark: other sources report otherwise

stoichiometry N: 2
B1: Atg18 wildtype (Autophagy-related protein 18, Saccharomyces cerevisiae), P43601 1-500 (natural protein)
chain: T1 chain
